Assay results: paper PMC12067460, “Probing the ferredoxin:hydrogenase electron transfer complex by infrared difference spectroscopy†” (Chemical Science, 2025)
Where no end group is shown, it is not given here.

Columns and labels:
[1] = biological target: Y3pCNF-CpFd, ferredoxin CpFd from Clostridium pasteurianum with tyrosine Y3 replaced by 4-cyano-L-phenylalanine (holo) (Clostridium pasteurianum) (UniProt P00195); assay: MST; anaerobic; reducing conditions (dithionite); ferredoxin labelled with Alexa Fluor 647
[2] = biological target: clostridial 2[4Fe-4S] ferredoxin CpFd from Clostridium pasteurianum, wild type (holo) (Clostridium pasteurianum) (UniProt P00195); assay: as above
[3] = biological target: ferredoxin PetF from Chlamydomonas reinhardtii, wild type, Alexa Fluor 647-labeled (Chlamydomonas reinhardtii) (UniProt P07839); assay: MST; labeled PetF (200 nM) titrated with unlabeled CrHydA1 (0.003–10 µM) with 2 mM dithionite under anaerobic conditions; read-out: concentration-dependent fluorescence quenching of the Alexa Fluor 647 label; 50 mM TRIS pH 8, 50 mM NaCl, 1 mM MgCl2, 0.05 mg/mL BSA, 0.05% Tween20; Monolith NT.115, 22°C
[4] = biological target: T1, [FeFe]-hydrogenase CpI from Clostridium pasteurianum (Clostridium pasteurianum, UniProt P29166 1-574); assay: MST; anaerobic; reducing conditions (dithionite); ferredoxin labelled with Alexa Fluor 647; conditions: both partners purified
T1 construct: [FeFe]-hydrogenase CpI of Clostridium pasteurianum, with H-domain (H-cluster) and F-domain (three [4Fe-4S] clusters, one [2Fe-2S] cluster)
T1 sequence: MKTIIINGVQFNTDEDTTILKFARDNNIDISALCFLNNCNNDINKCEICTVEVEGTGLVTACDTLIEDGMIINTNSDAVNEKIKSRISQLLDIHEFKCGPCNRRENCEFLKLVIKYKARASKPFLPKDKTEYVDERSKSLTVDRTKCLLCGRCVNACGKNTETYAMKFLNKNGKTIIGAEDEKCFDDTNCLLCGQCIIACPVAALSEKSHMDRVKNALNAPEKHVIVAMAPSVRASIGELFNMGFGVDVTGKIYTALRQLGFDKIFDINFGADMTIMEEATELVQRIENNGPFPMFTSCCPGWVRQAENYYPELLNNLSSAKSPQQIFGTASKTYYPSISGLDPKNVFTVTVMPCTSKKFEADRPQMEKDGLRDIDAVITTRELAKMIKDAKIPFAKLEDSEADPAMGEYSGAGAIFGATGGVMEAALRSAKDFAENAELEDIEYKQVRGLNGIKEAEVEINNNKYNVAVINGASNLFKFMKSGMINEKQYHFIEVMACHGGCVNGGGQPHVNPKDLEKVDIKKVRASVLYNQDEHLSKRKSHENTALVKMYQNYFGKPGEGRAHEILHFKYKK

Molecule “[FeFe]-hydrogenase CpI from Clostridium pasteurianum (from UniProt P29166 1-574) (enzyme)” has a Kd [1] of 11.3 µM.

“[FeFe]-hydrogenase CrHydA1 from Chlamydomonas reinhardtii (enzyme)” showed a Kd [2] of 2.41 µM and a Kd [3] of 1.24 µM.

B1: clostridial 2[4Fe-4S] ferredoxin CpFd from Clostridium pasteurianum, wild type (holo) (natural protein)
chain: AYKIADSCVSCGACASECPVNAISQGDSIFVIDADTCIDCGNCANVCPVGAPVQE
modifications: cysteine pairing not given here; also: Alexa Fluor 647 dye label, site not given here, binds two [4Fe-4S] clusters (F and F')
notes: Ferredoxin CpFd of Clostridium pasteurianum, 2[4Fe-4S] type, wild type; Tested reduced (with dithionite) and oxidized (without dithionite); the redox state is told by the assay; also called wild-type CpFd; holo-CpFd; source: E. coli C321.ΔA.opt
Work on B1 yielded a Kd [4] of 12.4 ± 0.97 µM.
